In assay [1] the target is T1, A3Bctd-DM (L230K/F308K), residues 187-378 (human, UniProt Q9UH17 187-378, L230K | F308K). Nature of the assay: SPR; association 120 s, dissociation 300 s.
In assay [2] the target is T1, A3Bctd-DM (L230K/F308K), residues …. Nature of the assay: SPR; association 300 s, dissociation 750 s.

We go through 1 molecule from paper PMC8070380 (2021).

The koff is the first-order rate constant of dissociation.

T1 sequence (Q9UH17 187-378 L230K/F308K): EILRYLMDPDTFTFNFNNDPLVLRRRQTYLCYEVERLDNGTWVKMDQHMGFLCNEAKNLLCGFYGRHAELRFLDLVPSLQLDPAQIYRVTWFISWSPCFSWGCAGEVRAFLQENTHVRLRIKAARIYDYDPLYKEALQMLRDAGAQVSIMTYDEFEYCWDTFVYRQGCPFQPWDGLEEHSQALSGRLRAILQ

B1: scFv 5G7 (heavy chain Fv followed by light chain Fv, 16-residue His8 linker) (scFv, V domains shown)
VH: EVQLLESGGDLVKPGGSLKLSCAASGFTFSSYGMSWVRQTPDKRLEWVATISSGGSYTYYPDSVKGRFTISRDNAKNTLYLQMSSLKSEDTAMYYCARGGEGYYFDYWGQGTTLTVSS
VL: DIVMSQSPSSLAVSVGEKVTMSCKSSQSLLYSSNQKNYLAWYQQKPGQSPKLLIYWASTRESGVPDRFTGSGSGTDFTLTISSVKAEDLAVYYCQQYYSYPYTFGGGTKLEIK
Consider B1, for which the results for the koff in assay [1] and in assay [2] were 0.000779 s⁻¹ and 0.000331 s⁻¹, respectively.
